Assay [1] concerns the target Human polyclonal IgG (human). Kind of assay: affinity constant, method not stated; table prints no power of ten.
In assay [2] the target is Human polyclonal IgG (human). As to the kind of experiment: affinity constant, method not stated; same result as the 1st table, row 8, column 7 but printed with its power of ten.

B1: Protein LG (protein)
chain: AVENKEETPETPETDSEEEVTIKANLIFANGSTQTAEFKGTFEKATSEAYAYADTLKKDNGEYTVDVADKGYTLNIKFAGKEKTPEEPKEEVTIKANLIYADGKTQTAEFKGTFEEATAEAYRYADALKKDNGEYTVDVADKGYTLNIKFAGKEKTPEEPKEEVTIKANLIYADGKTQTAEFKGTFEEATAEAYRYADLLAKENGKYTVDVADKGYTLNIKFAGKEKTPEEPKEEVTIKANLIYADGKTQTAEFKGTFAEATAEAYRYADLLAKENGKYTADLEDGGYTINIRFAGKKVDEKPEEPMDTYKLILNGKTLKGETTTEAVDAATAEKVFKQYANDNGVDGEWTYDDATKTFTVTEKPEVIDASELTPAVTTYKLVINGKTLKGETTTKAVDAETAEKAFKQYANDNGVDGVWTYDDATKTFTVTEM
B1: the Ka turned out to be 20 M⁻¹ in assay [1] and 2e+10 M⁻¹ in assay [2].

The values above are taken from patent US6822075.
